The values below come from patent US20160046725A1 (PIERRE FABRE MEDICAMENT, published 2016).

Changes are numbered by the printed parent chain.

The chains are these.
T1: recombinant human Mer-Fc protein (R and D Systems, cat N° 891-MR) (human, UniProt Q12866 26-499, limits assumed)
T1 construct: Bought construct; also called rhMer-Fc; rh-Mer-Fc; not shown: Fc portion of the bought fusion
T1 sequence (looked up): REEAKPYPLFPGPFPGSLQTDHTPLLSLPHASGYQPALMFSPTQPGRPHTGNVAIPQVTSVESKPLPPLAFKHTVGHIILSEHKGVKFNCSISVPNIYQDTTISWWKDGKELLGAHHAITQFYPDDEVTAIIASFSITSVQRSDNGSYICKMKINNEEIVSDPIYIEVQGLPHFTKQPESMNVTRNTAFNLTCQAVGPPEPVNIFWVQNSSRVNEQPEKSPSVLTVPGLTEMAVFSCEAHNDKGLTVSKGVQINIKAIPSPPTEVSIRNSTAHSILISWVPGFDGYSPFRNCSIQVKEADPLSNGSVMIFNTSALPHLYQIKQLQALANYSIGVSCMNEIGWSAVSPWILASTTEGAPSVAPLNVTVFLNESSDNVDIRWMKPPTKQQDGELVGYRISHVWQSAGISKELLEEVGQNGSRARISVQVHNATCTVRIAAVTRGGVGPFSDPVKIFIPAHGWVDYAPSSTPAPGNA

T2: recombinant human Dtk-Fc protein (R and D Systems, cat N° 859-DK) (human, UniProt Q06418 41-428)
T2 construct: Bought construct; also called rhDtk-Fc; rhDtk; not shown: Fc portion of the bought fusion
T2 sequence (looked up): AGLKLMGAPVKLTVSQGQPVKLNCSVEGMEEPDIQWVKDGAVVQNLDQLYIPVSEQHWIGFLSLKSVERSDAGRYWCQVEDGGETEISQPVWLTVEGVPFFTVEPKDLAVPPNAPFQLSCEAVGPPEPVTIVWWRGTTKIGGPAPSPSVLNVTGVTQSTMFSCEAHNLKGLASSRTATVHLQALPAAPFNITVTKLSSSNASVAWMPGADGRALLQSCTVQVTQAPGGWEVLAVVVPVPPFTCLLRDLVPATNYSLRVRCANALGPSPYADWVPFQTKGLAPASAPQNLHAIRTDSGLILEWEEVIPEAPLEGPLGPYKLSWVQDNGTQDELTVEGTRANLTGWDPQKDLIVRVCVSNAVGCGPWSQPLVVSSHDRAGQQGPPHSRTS

T3: monkey Axl receptor on COS7 cells (African green monkey, UniProt A0A0D9S0W1 26-894)
T3 construct: also called monkey cellular form of the Axl receptor
T3 sequence: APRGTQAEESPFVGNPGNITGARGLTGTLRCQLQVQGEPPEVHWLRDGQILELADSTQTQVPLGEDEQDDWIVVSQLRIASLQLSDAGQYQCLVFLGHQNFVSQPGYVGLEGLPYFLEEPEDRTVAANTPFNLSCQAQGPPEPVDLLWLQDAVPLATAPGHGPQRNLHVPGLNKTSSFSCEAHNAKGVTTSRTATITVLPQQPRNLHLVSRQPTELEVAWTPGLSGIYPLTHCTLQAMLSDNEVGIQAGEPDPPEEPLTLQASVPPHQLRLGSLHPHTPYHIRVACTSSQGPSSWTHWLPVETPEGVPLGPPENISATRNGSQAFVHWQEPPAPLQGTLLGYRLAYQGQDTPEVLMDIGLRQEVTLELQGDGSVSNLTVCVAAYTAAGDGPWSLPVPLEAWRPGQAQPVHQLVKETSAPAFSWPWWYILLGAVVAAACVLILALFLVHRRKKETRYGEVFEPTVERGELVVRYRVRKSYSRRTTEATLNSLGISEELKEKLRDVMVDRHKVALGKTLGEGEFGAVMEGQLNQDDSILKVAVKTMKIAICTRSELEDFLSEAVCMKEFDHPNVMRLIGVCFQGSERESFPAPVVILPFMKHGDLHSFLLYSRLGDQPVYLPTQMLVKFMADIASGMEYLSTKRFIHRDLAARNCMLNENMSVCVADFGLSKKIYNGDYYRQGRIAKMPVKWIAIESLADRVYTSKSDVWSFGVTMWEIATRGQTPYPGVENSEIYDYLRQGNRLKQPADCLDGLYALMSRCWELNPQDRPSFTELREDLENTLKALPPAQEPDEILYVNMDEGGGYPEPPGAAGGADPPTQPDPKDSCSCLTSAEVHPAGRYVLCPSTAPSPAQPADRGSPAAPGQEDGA

B1: 110D7 anti-Axl monoclonal antibody (antibody, V domains shown)
VH: EVKLVESGGGLVQPGGSLKLSCATSGFTFSDYYMYWVRQTPEKRLEWVAYISNGGGSTYYPDTVKGRFTMSRDNAKNTLYLQMSRLKSEDTAMYYCARLSFYAMDYWGQGTSVTVSS
VL: DIVMTQSHKFMSTSVGDRVSITCKASQDVTTAVAWYQQKPGQSPKLLIYWASTRHTGVPDRFTGSGSGTDYTLTISSVQAEDLALYYCQQHYRIPFTFGSGTKLEIK
notes: Murine monoclonal antibody purified from a hybridoma; a mIgG1 isotype control (9G4) is used beside it; also called m110D7; monoclonal antibody 110D7 derived from the hybridoma I-3959
B2: 1024G11 anti-Axl monoclonal antibody (antibody, V domains shown)
VH: EVKLVESGGGLVQPGGSLNLSCAASGFTFSSYSMSWVRQTPEKRLEWVAFISNGGGRTYYPDTVKGRFTFSRDNARNTLYLQMSSLNSEDTAMYFCARGTTESYYAMDYWGQGTSVTVSS
VL: B1 VL with T30I, Y87F, Y92L, R93S, I94T, F96L, S100A, I106L
notes: Murine monoclonal antibody purified from a hybridoma; a mIgG1 isotype control (9G4) is used beside it; also called monoclonal antibody 1024G11 derived from the hybridoma I-4501
B3: 1003A2 anti-Axl monoclonal antibody (antibody, V domains shown)
VH: B2 VH with N19K, S30N, F50Y, V64I, F70L, A75D, N87K, F95Y, M107L
VL: B1 VL with V15L, V19I, T30I, T72N, Y92F, R93S, I94T, F96L, S100A, I106L
notes: Murine monoclonal antibody purified from a hybridoma; a mIgG1 isotype control (9G4) is used beside it; also called monoclonal antibody 1003A2 derived from the hybridoma I-4499

One assay deals with T1, recombinant human Mer-Fc protein (R and …). Description: ELISA on coated protein. The method, then:
(§1) Briefly, the recombinant human Axl-Fc (R and D systems, cat N° 154AL/CF), rhDtk (R and D Systems, cat N° 859-DK) or rh-Mer-Fc (R and D Systems, cat N° 891-MR) proteins were coated overnight at 4° C. to Immulon II 96-well plates and, after a 1 h blocking step with a 0.5% gelatine solution, 110D7, 1003A2, 1024G11 purified antibodies were added, respectively, for an additional 1 h at 37° C. at starting concentration of 5 μg/ml (3.33 10⁻⁸M). Then ½ serial dilutions were done over 12 columns. Then plates were washed and a goat anti-mouse (Jackson) specific IgG-HRP was added for 1 h at 37° C. Reaction development was performed using the TMB substrate solution. The commercial anti-Axl Mab 154 antibody is also used in parallel (data not shown). Coating controls are performed in presence of a goat anti-human IgG Fc polyclonal serum labelled with HRP (Jackson, ref 109-035-098) and/or in presence of a HRP-coupled anti-Histidine antibody (R and D Systems, ref: MAB050H). No non specific binding is observed in absence of primary antibody (diluant). Results for the 110D7 are represented in FIGS. 2A, 2B and 2C, respectively. Results for the 1003A2 are represented in FIGS. 2D, 2E and 2F, respectively. Results for the 1024G11 are represented in FIGS. 2G, 2H and 2I, respectively.
In the case of B1, the binding result is on record as “no binding”.
On the same count and under the same terms, the entry for B2 is “no binding”.
As for B3, the binding result is reported as “no binding”.

The target in a further assay is T2, recombinant human Dtk-Fc protein (R and …). Description: ELISA on coated protein. The method, then: as §1
As to B1, the binding result is “no binding”.
On the same count and under the same terms, the entry for B2 is “no binding”; for B3 it is “no binding”.

Another assay deals with T3, monkey Axl receptor on COS7 cells. Briefly: flow cytometry titration on COS7 cells. The method, then:
For 110D7, respectively 1003A2 and 1024G11, cellular binding purpose, 2·10⁵ cells were incubated with an antibody concentration range prepared by ½ serial dilution (12 points) of a 10 μg/ml (6.66 10⁻⁸ M) antibody solution of 110D7, respectively 1003A2 and 1024G11, or m9G4 (mIgG1 isotype control Mab) for 20 min at 4° C. After 3 washes in phosphate-buffered saline (PBS) supplemented with 1% BSA and 0.01% NaN₃, cells were incubated with secondary antibody goat anti-mouse Alexa 488 (dilution 1/500) for 20 minutes at 4° C. After 3 additional washes in PBS supplemented with 1% BSA and 0.1% NaN₃, cells were analyzed by FACS (Facscalibur, Becton-Dickinson). At least 5000 cells were assessed to calculate the mean value of fluorescence intensity. Data are analyzed using Prism software.
On the technique in general: In flow cytometry, cells or beads pass a laser one at a time.
Consider B1, for which the “antibody concentration above which the plateau is reached” value was more than 1000 pM.
The same measure, in the same setting: with B2 the figure was more than 520 pM; with B3, more than 520 pM.
